Experimental data from the DeepSol protein solubility set.

experiment: soluble on expression in E. coli; label from the status in PepcDB or PDB records

Row | Sequence | soluble on expression in E. coli
1 | MSFDGFFLHHLTKELQEQILWGRIQKVNQPFEQELVLTIRNNRQNYKLLLSAHPVFGRVQLTKTDFQNPQSPNTFTMIMRKYLQGALIENIEQIENDRILEMSISNKNEIGDQIKVTMIIEIMGKHSNIILLDKNEGKITESIKHIGFTQNSYRTILPGSRYLAPPKIQAQNPFTISDETLFEILQTEDLAANNLQKLFQGLGRDTAAELSQRLKTDTFKNFKLFFDSPTSPTLTEKSFTAITFSNSQETFGSLSDLLDYFYQDKAERDRIAQQASDLIHRIQNELEKNKKKLKKQEQELQDTDKAEEFRQKGELLTTYLNQVPNNQDSVELDNYYTGQKVSIPLNKALTPSQNAQRYFKKYQKLKEAVKHLGSLISETKATIQYLESVDNALNQASLSEISEIREELVQTGFVKRRHREKIQKRKK | not soluble
2 | MEVDTSSSSSSEDECDPSSPSTAYIHSASVRLSVGTEEAARTVADVIKIDKEPRRSGARREVCSEGEFVVIKIESKDPKSLSKSIANAVDMIDLSVKTIKLCENLGKSKENGLKRKLSNGSQA | not soluble
3 | MKKVLFLLFLVFSFGVYSATFSDSDKKEILKQFSEFQKAVKKKDAAAVSRYISYPLKEGNTKEVIWKNSSELAKDLKDKETYTFYSINELKIDSNANKIINVEERLLEKNGEFGDEFLSVTGRFLDTDDVEGTIYTGIDKPHFVVAVSVYDDMFEGGTYYLFSFENKKLELVSIFRLP | not soluble
4 | MSLYTLYSFGTPNGFKPTIMLEELTQPYTIELIDITQGEQFNPDFLKISPNNKIPVLHDQTNDFYLMESVAILQYLAEKHRQFLPETTKEKYTIIQWCYFQAAHIGPMFGQFGHFHRYAQERVPYAMTRYADESMRLLGVMEKQLVKAPFIGGSNYTIADMAIWPWIWCFQFIYGQTIDAKQFPSLMSWYQRISERQAVRATLTAYGREGHHHHHH | soluble
5 | MGSDKIHHHHHHMRPTENGVLHLRKKFVASLLAVAIASTTACAQLGISKEQAGTVIGGLAGVAIGSTMGSGNGKIAAALIAGGIGAYVGNRIGHMLDEKDQQALALRTQEVLSQQQTTASAQPVTWKSDHSGATAQIVPGKEYTKTKQVEVKRAPKIQAVPSMKLINEPYVTISDNLNVRAAPNQAGEKVGSLKNHTEFTAVGSTGDWILVGRKGVTVGYVHKNYVEPKAQAVAKRVTPAVNLDELDVAASKETQGFDLDSVQSLPTQTVAAEAACRPVTVSLKSQSGQTEQEQNTFCKQANGTWELI | not soluble
6 | MSLRKGSMRITPLGGLGEIGRNMNVIEYNGHLLLIDCGVLFPEEEQPGVDLILPDFSYIKNRLDKVDALVLTHGHEDHIGGVPYLLKLRPDIPLIGSKLTLAFVDAKCKEHHQNPTKVEVAGREKLKVGPFDLEFVNVTHSIPDALAVYVKTPAGSLIDTGDIKLDQLPLDHRITDLVEFGKIGEKGVDLLMMDSTNAEVPGFVKPETSIGPALDQAFAQATRKIIVASFSSHVHRVQQVVDAAHKYGRKVVFVGRSMVRNMSIAADLGYLHIPEGTVVDLKQANDIQDDKLVFMCTGSQGEPMAALGRIADGNHRDIHINEFDTVILASSLIPGNEHGVYKVINKLVQLGAKVVNRDNAAVHVSGHCNEGELLYMYNIVKPKCAMPIHGENRHLVANGLIAVKTGVDPQNVVLAEDGDVVDLYHGRAAVVGSVPCGYVYVDGDSVGELTDDELEKRRILGTEGFVSAFVVVDTDNHEVVTGPKIYLNAVAEDESEFDKVRHQIVEQLNDQMMQGTRDTYKLQQTMRRTLGSWVARQLHRKPMIVPVVADIAQDVETVETKEGHHHHHH | soluble
7 | MHILVVGVDYKSAPIEIREKVSFQPNELAEAMVQLKEEKSILENIIVSTCNRTEIYAVVDQLHTGRYYIKKFLADWFQLSKEELSPFLTFYESDAAVEHLFRVACGLDSMVIGETQILGQVRDSFKTAQQEKTIGTIFNELFKQAVTVGKRTHAETDIGSNAVSVSYAAVELAKKIFGNLSSKHILILGAGKMGELAAENLHGQGIGKVTVINRTYLKAKELADRFSGEARSLNQLESALAEADILISSTGASEFVVSKEMMENANKLRKGRPLFMVDIAVPRDLDPALNDLEGVFLYDIDDLEGIVEANMKERRETAEKVELLIEETIVEFKQWMNTLGVVPVISALREKALAIQSETMDSIERKLPHLSTREKKLLNKHTKSIINQMLRDPILKVKELAADADSEEKLALFMQIFDIEEAAGRQMMKTVESSQKVHSFKKAESKAGFSPLVSE | not soluble
8 | MLSDITIHNLGVIPSASLELSEGLTVLTGETGAGKTMVVTGLRLLAGGRAEAQRVRSGSSQAVVEGRFLLDSVAPESAEMARAVVSAAGGALDENGEVIVSRTVSAHGRSRAHLGGRSVPAASLVEFSKEVLTIHGQNDQLRLLNSDRQRDALDRFSQKISALMTVYSEAYRAWKNLSKDLQERQASKRELAQEVDRLEFAIREISEVDPQPGEEADLLVQIARLQDVDDLRAQAVGALSVIDGAAGVEGYATCDSSDADAASDLIGQALSSVRVSSDPTLQGVSQQLEAVTSILMEVSAQLGGFLDELPADPQMLDKLLQRQQALKQLTRKYASDIDGVIKWKLKAEQKLESIDVSPEALDQLKKETALAERKMNDAGMALRAARIEAAQELSNAVTKELHGLAMPKAMFSVVVHPTEPQPSGFDEVEFCLAPNNATDPRPLASSASGGELSRVMLALEVILSAGQHGNTLVFDEVDAGVGGRAAVEIGRRLARLAQNNQVIVVTHLPQVAAYADTHLHVAKDVGESTVTSGVEKLSEQRRVEDLARMLAGLEDTDTGRAHAKELFEKAQAENRAFRV | not soluble
9 | MATAADSVYSIESPKAAKSLMLDVVHAGKRLVAVGDRGHILYSDDQGQTWVQAKVPTRQLLTAVYFVDDKRGWAVGHDAQVLASSDGGATWTRQFQDLKREAPLLDVWFKDTQTGYAVGAYGALLETSDGGQHWEDVSDRLDNEDQFHLNAIAQVKDSGLFIVGEQGSMFRSADDGQTWERLEGPYEGSLFGVIGTGQPATLLVYGLRGNLYRSTDFGSTWEQVELEHHHHHH | soluble
10 | MTISFNTVPSNTLVPLFYAEMNNSAANTAVTSAPALLIGHASNDAAIEVNSLVLMPSADYARQICGAGSQLARMVEVYRQTDPFGELYVIAVPEARGAAATVRVTVAGEAEESGTLSLYVGRSRVQVPVVNGDDATAVATAIKEAVNGVITLPFTASSDAGVVTLTARHKGLYGNELPVCLNYYGSGGGEILPAGLRVVTEVGAAGSGAPDLTAAVAAMGDEAFDFIGLPFNDAASINMMMTEMNDSSGRWSYARQLYGHVYTAKLGTLSELVGAGDMHNQQHITLAGYEKETQSPVDELVASRLAREAVFIRNDPARPTQTGELVGMLPAPKGKRFIMTEQQTLLSHGVATAYVEGGTLQIQRSVTTYKKNAYGVADNSYLDSETLHTSAYVLRKLKSVITSKYGRHKLANDGTRFGPGQAIVTPAVIKGELLATYRQMERAGIVENYDLFKQYLIVERDADNPNRLNTLFPPDYVNQLRVFAVVNQFRLQYSEESA | not soluble
11 | GQLVESGGGSVQAGGSLRLSCAASGIDSSSYCMGWFRQRPGKEREGVARINGLGGVKTAYADSVKDRFTISRDNAENTVYLQMNSLKPEDTAIYYCAAKFSPGYCGGSWSNFGYWGQGTQVTVSSH | soluble
12 | MKRILNYPGSKWGLADLIIENMPEHKSYLEPFCGSCAVFMNKQKATLETINDLDGRLVNLFKTMRDNPEELQYLIMHTLYSREEYMLSHEISSDSLEDARRMAVRLWFAVGGKTNANVGFRKNVSWNGPYNAYEWNDMYNRIGIAAARLKDAQIENVDAIKLIEQHNDKDTLIYCDPPYVATSLASSHYQHDFSLEQHKELLKVLKKHEGKVMLSGYESELYKQELSDWPALKTMTKVGITSEKKSDRQEIIWCNFEPPMQLNLFKEEQA | not soluble
13 | MPGTKQVNVGSLKVGQYVMIDGVPCEIVDISVSKPGKHGGAKARVVGIGIFEKVKKEFVAPTSSKVEVPIIDRRKGQVLAIMGDMVQIMDLQTYETLELPIPEGIEGLEPGGEVEYIEAVGQYKITRVIGGK | soluble
14 | MKYDWILFDADETLFHFDAFKGLQLMFSRKGVDFTEQDFAHYQTVNKPLWVDYQDGKVTADELKHKRFTEWAEKLNTTTADLNSAFLEAMADICS | not soluble
